Consider nine molecules from paper PMC12042621 (Structure (London, England : 1993), 2025).

Changes are numbered by the printed parent chain. Names may count otherwise.

The chains are these.
B1: S1–8 (VHH)
VHH: QVQLVESGGGLVQAGGSLRLSCAASGRVLSSYVMGWFRQAPGKEREFVAAIRWNGGSTFYADSVKGRLTISRDNAKNTVYLQMNSLKPEDTAAYYCAASPRTMYDATYYYSRTSYDYWGQGTQVTVS
B2: LaG24_(Q68K) (VHH)
VHH: DVQLVESGGGLVQPGGSLRLSCAASGEIASIIAIGWYRQAPGKQRESVALITRSGMITYGDSAKGRFTISRDDAKNTVYLHMDDLVPEDTAVYYCNAKKVSFGDYWGQGTQVTVSG
B3: LaG24_(H85Q) (VHH)
VHH: B2 VHH with K64Q, H81Q
B4: LaG16 (VHH)
VHH: QVQLVESGGRLVQAGDSLRLSCAASGRTFSTSAMAWFRQAPGREREFVAAITWTVGNTILGDSVKGRFTISRDRAKNTVDLQMDNLEPEDTAVYYCSARSRGYVLSVLRSVDSYDYWGQGTQVTVSG
B5: LaG43 (VHH)
VHH: DVQLVESGGGLVQPGGSLRLSCEASGGAFSTVAMGWFRQAPGKEREFVGAITWTAGSTYYADSAKGRFTISRDNAKNTVHLQMNSLKPEDTAVYYCAQRVRGFFGPLRTTPSWYEYWGQGTQVTVSG
B6: LaG19_(S102R) (VHH)
VHH: QVQLVESGGGLVQAGGSLRLSCAASGPTGAMAWFRQAPGKEREFVGGISRSGTDTYYVDSVKGRFTIDRDNAKNTVYLQMNSLKPEDTAVYYCAARRRQILFTSRTDYEFWGQGTQVTVSG
B7: LaG41 (VHH)
VHH: DVQLVESGGGLVQAGGSLRLSCAASGPTGAMAWFRQAPGKEREFVGGISGSETDTYYVDSVKGRFTVDRDNVKNTVYLQMNSLKPEDTAVYYCAARRRITLFTSRTDYDFWGRGTQVTVGL
B8: LaG21_(L69F) (VHH)
VHH: B7 VHH with D1Q, K40M, V58A, S60F, Y77D, I99V, T106A, R113Q, G120S, L121G
B9: LaG21 (VHH)
VHH: QVQLVESGGGLVQAGGSLRLSCAASGPTGAMAWFRQAPGMEREFVGGISGSETDTYYADFVKGRLTVDRDNVKNTVDLQMNSLKPEDTAVYYCAARRRVTLFTSRADYDFWGQGTQVTVSG

The target of one experiment is SARS-CoV-2 spike S1 (SARS-CoV-2, wild type (Wuhan-Hu-1), UniProt P0DTC2). The experiment can be described thus: SPR.
With B1, the Kd came out at 3.8 nM.

The next experiment deals with Green Fluorescent Protein (Aequorea victoria, laboratory variant …). In words: SPR.
With B2, the “fold increase in affinity over wildtype LaG24” value was approximately 10 fold.
On to B3, for which the “fold increase in affinity over wildtype LaG24” value was more than 10 fold.
B4 yielded an equilibrium dissociation constant (Kd) of 0.7 nM.
B5 registered an equilibrium dissociation constant (Kd) of 11 nM.
In the case of B6, the Kd stood at 0.6 nM.
In the case of B7, binding was characterised by a dissociation constant (Kd) of 0.9 nM.
As for B8, binding was put at a Kd of 0.7 nM.
On to B9, for which the Kd stood at 7 nM.
